Data taken from patent CN117751141A.

Legend:
[1] = biological target: T1, CD300c抗原(11832-H08H，义翘神州) (UniProt Q08708); test: binding ELISA, CD300c antigen coated at 8 μg/mL, HRP anti-Fc IgG
T1 sequence (looked up): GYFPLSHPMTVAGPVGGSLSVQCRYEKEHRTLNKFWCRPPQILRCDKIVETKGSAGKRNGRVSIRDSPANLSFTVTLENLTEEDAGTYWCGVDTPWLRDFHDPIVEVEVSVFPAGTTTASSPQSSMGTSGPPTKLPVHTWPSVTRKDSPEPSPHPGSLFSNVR

[2] = biological target: T2, CD300c overexpressed on the surface of 293T cells and THP-1 cells (UniProt Q08708); test: flow cytometry (FACS binding) on 293T cells overexpressing CD300c, FITC anti-human IgG (H+L), MFI
T2 sequence (looked up): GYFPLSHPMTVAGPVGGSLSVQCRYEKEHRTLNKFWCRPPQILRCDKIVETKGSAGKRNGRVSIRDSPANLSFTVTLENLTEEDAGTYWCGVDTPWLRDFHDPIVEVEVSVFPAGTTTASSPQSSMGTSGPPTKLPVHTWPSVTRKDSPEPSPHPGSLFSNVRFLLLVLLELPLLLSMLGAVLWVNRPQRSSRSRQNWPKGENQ

小鼠CD300c抗原 (小鼠 (mouse)) = biological target: T3, 小鼠CD300c抗原 (小鼠 (mouse)); test: cell-based or functional assay
T3 sequence (A2A7V7 whole entry, looked up): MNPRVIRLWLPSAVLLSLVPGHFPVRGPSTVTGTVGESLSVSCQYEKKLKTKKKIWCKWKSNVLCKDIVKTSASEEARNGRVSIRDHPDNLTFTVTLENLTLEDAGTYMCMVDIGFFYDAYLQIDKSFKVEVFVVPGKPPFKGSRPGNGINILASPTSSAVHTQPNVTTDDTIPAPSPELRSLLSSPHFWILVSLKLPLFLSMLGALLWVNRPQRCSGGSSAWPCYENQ

[3] = biological target: T1, CD300c抗原(11832-H08H，义翘神州); test: SPR, CD300c immobilised on CM5 chip (399.2 RU), CL7 0-6.25 μg/mL as analyte
[4] = biological target: T2, CD300c overexpressed on the surface of 293T cells and THP-1 cells; test: flow cytometry (FACS binding) on THP-1 cells overexpressing CD300c, FITC anti-human IgG (H+L), MFI

Binder	EC50 [1]	also measured
抗CD300c单克隆抗体 CL4 (antibody, from another filing, V domains shown) VH: RVQLLESGGGLVQPGGSLRLSCAASGFTFGSNYMSWVRQAPGKGLEWVSTISGSGTSTYYADSLKGRFTISRDNSKNTLYLQMNSLRAEDTAVYYCARGMWGMDVWGQGTLVTVSS VL: QSVLTQPPSASGTPGQRVTISCTGKHRHTVNWYQLLPGTAPKLLIYLDSERPSGVPDRFSGSKSGTSASLAISGLRSEDEADYYCQSYDSSSVVFGGGTKLTVL	0.031 µg/mL	–
抗CD300c单克隆抗体 CK3 (antibody, from another filing, V domains shown) VH: RVQLLESGGGLVQPGGSLRLSCAASGFTFSSYAISWVRQAPGKGLEWVSATSGSGRATYYADSVKGRFTISRDNSKNTLYLQMNSLRAEDTAVYYCARDTWWEGYFDLWGQGTLVTVSS VL: EIVLTQSPGTLSLSPGERATLSCQASHISTHLNWYQQKPGQAPRLLIYGASSRATGIPDRFSGSGSGTDFTLTISRLEPEDFAVYYCQQYNTYPPTFGQGTKVEIK	0.793 µg/mL	–
抗CD300c单克隆抗体 CL7 (antibody, from another filing, V domains shown) VH: EVQLLESGGGLVQPGGSLRLSCAASGFTFSRYAMSWVRQAPGKGLEWVSAISGSGGSTYYADSVKGRFTISRDNSKNTLYLQMNSLRAEDTAVYYCARSSQGIFDIWGQGTLVTVSS VL: QSVLTQPPSASGTPGQRVTISCSGNNIGTRRVHWYQQLPDTAPKLLIYSKNNRPSGVPDRFSGSKSGTSASLAISGLRSEDEADYYCAAWDDSLSGPVFGGGTKLTVL	0.047 µg/mL	EC50 [2]: 2.7 nM; 癌细胞增殖抑制作用 (CT26 mouse colorectal cancer cells, CCK-8, 10 μg/mL antibody, 5 days) (小鼠CD300c抗原 (小鼠 (mouse))): 66 %; Kd [3]: 0.52 nM; EC50 [4]: 2.6 nM
抗CD300c单克隆抗体 CL9 (antibody, from another filing, V domains shown) VH: EVQLLESGGGLVQPGGSLRLSCAASGFTFSSYYWSWVRQAPGKGLEWVSAISGSGGSTYYADSVKGRFTISRDNSKNTLYLQMNSLRAEDTAVYYCARIDVYGFDIWGQGTLVTVSS VL: QSVLTQPPSASGTPGQRVTISCSGSTSNIGTNYVYWYQQLPGTAPKLLIYDNNNRPSGVPDRFSGSKSGTSASLAISGLRSEDEADYYCQTWDSSTDVVFGGGTKLTVL	0.094 µg/mL	–
抗CD300c单克隆抗体 CK1 (antibody, from another filing, V domains shown) VH: EVQLLESGGGLVQPGGSLRLSCAASGFTFSRYAMTWVRQAPGKGLEWVSSMSGTGGTTYYADSVKGRFTISRDNSKNTLYLQMNSLRAEDTAVYYCARGAYGFDHWGQGTLVTVSS VL: EIVLTQSPGTLSLSPGERATLSCRASQSIGNYLNWYQQKPGQAPRLLIYDASNLETGIPDRFSGSGSGTDFTLTISRLEPEDFAVYYCQQSSAIPYTFGQGTKVEIK	0.056 µg/mL	–
抗CD300c单克隆抗体 CL5 (antibody, from another filing, V domains shown) VH: RVQLLESGGGLVQPGGSLRLSCAASGFTFSSYAMHWVRQAPGKGLEWVSSISGGGYGTYYADSVKGRFTISRDNSKNTLYLQMNSLRAEDTAVYYCARSTVWAFDIWGQGTLVTVSS VL: QSVLTQPPSASGTPGQRVTISCSGNNIGSKSVHWYQQLPGTAPKLLIYDVSKRPSERPDRFSGSKSGTSASLAISDLRSEDEADYYCQSFDSSGTWIFGGGTKLTVL	0.032 µg/mL	–
抗CD300c单克隆抗体 SK14 (antibody, from another filing) EVQLLESGGGLVQPGGSLRLSCAASGFTFSNFAIAWVRQAPGKGLEWVSAISGRGTSTYYADSVKGRFTISRDNSKNTLYLQMNSLRAEDTAVYYCARGVSGFDSWGQGTLVTVSSGGGGSGGGGSGGGGSEIVLTQSPGTLSLSPGERATLSCRASQSISSHLAWYQQKPGQAPRLLIYDTSNRATGIPDRFSGSGSGTDFTLTISRLEPEDFAVYYCQQSYSTPFTFGQGTKVEIK	0.065 µg/mL	–
抗CD300c单克隆抗体 SK12 (antibody, from another filing) RVQLLESGGGLVQPGGSLRLSCAASGFTFSSYAMHWVRQAPGKGLEWVSAISGSGGDTYHADSVKGRFTISRDNSKNTLYLQMNSLRAEDTAVYYCTRGLSGFDYWGQGTLVTVSSGGGGSGGGGSGGGGSEIVLTQSPGTLSLSPGERATLSCRASQSISSYLNWYQQKPGQAPRLLIYDASNRAPGIPDRFSGSGSGTDFTLTISRLEPEDFAVYYCQQSYSIPITFGQGTKVEIK	0.067 µg/mL	–
抗CD300c单克隆抗体 SK17 (antibody, from another filing, V domains shown) VH: EVQLLESGGGLVQPGGSLRLSCAASGFTFSSYYWSWVRQAPGKGLEWVSTITGSGGSTDYANSVKGRFTISRDNSKNTLYLQMNSLRAEDTAVYYCATGGGIFDYWGQGTLVTVSS VL: EIVLTQSPGTLSLSPGERATLSCQASQTISNYLNWYQQKPGQAPRLLIYDASNRATGIPDRFSGSGSGTDFTLTISRLEPEDFAVYYCQQYNSYPPSFGQGTKVEIK	0.054 µg/mL	–
抗CD300c单克隆抗体 CL10 (antibody, from another filing, V domains shown) VH: EVQLLESGGGLVQPGGSLRLSCAASGFTFSSYGMHWVRQAPGKGLEWVSAISGSGGSTYYADSVKGRFTISRDNSKNTLYLQMNSLRAEDTAVYYCASGYGLMDVWGQGTLVTVSS VL: QSVLTQPPSASGTPGQRVTISCTRSSGIIASNYVQWYQQLPGTAPKLLIYRNNQRPSGVPDRFSGSKSGTSASLAISGLRSEDEADYYCSSYAGNNNLVFGGGTKLTVL	0.039 µg/mL	癌细胞增殖抑制作用 (CT26 mouse colorectal cancer cells, CCK-8, 10 μg/mL antibody, 5 days) (小鼠CD300c抗原 (小鼠 (mouse))): 15 %
抗CD300c单克隆抗体 SK15 (antibody, from another filing, V domains shown) VH: RVQLLESGGGLVQPGGSLRLSCAASGFTFSSYAMHWVRQAPGKGLEWVSAINGSGGSTYYADSVKGRFTISRDNSKNTLYLQTNSLRAEDTAVYYCARGLQGFDYWGQGTLVTVSS VL: EIVLTQSPGTLSLSPGERATLSCQASQDITNYLNWYQQKPGQAPRLLIYDASSLETGIPDRFSGSGSGTDFTLTISRLEPEDFAVYYCQQSYSTPITFGQGTKVEIK	14.7 µg/mL	–
抗CD300c单克隆抗体 SK11 (antibody, from another filing, V domains shown) VH: RVQLLESGGGLVQPGGSLRLSCAASGFTFSTYGMHWVRQAPGKGLEWVSAISGSGGSTYYADSVKGRFTISRDNSKNTLYLQMNSLRAEDTAVYYCARGLSGLDYWGQGTLVTVSS VL: EIVLTQSPGTLSLSPGERATLSCRSSQGITNYLAWYQQKPGQAPRLLIYDASNRATGIPDRFSGSGSGTDFTLTISRLEPEDFAVYYCQQSYSTPLTFGQGTKVEIK	0.052 µg/mL	–
抗CD300c单克隆抗体 CK2 (antibody, from another filing, V domains shown) VH: EVQLLESGGGLVQPGGSLRLSCAASGFTFSSYGMHWVRQAPGKGLEWVSAISGSGTSIYYADSVKGRFTISRDNSKNTLYLQMNSLRAEDTAVYYCARGGTAFDYWGQGTLVTVSS VL: EIVLTQSPGTLSLSPGERATLSCRASQRSDNYLAWYQQKPGQAPRLLIYDASNRATGIPDRFSGSGSGTDFTLTISRLEPEDFAVYYCQQSYSTPFTFGQGTKVETK	0.033 µg/mL	–
抗CD300c单克隆抗体 SL18 (antibody, from another filing) RVQLLESGGGLVQPGGSLRLSCAASGFTFSDYHMHWVRQAPGKGLEWVSTISSSGGYTYYAESVKSRFTISRDNSKNTLYLQMNSLRAEDTAVYYCARSIRLPLDYWGQGTLVTVSSSGGGSGGGGSGGGGSQSVLTQPPSASGTPGQRVTISCSGNNIGSKGVHWYQQLPGTAPKLLIYEDSKRPSGVRDRFSGSKSGTSASLAISGLRSEDEADYYCQSYDSTKGVVFGGGTKLTVL	0.17 µg/mL	癌细胞增殖抑制作用 (CT26 mouse colorectal cancer cells, CCK-8, 10 μg/mL antibody, 5 days) (小鼠CD300c抗原 (小鼠 (mouse))): 38 %
抗CD300c单克隆抗体 CL6 (antibody, from another filing, V domains shown) VH: EVQLLESGGGLVQPGGSLRLSCAASGFTFSSYGMHWVRQAPGKGLEWVSAISGSGGSTYYADSVKGRFTISRDNSKNTLYLQMNSLRAEDTAVYYCAVSGAGRGFFDYWGQGTLVTVSS VL: QSVLTQPPSASGTPGQRVTISCSGSSSNIGSNYVYWYQQLPGTAPKLLIYEDNKRPSGVPDRFSGSKSGTSASLAISGLRSEDEADYYCSSYTSSSTVIFGGGTKLTVL	0.148 µg/mL	–
抗CD300c单克隆抗体 SK13 (antibody, from another filing, V domains shown) VH: RVQLLESGGGLVQPGGSLRLSCAASGFTFSDYAMSWVRQAPGKGLEWVSSISSSSSYIYYTDSVKGRFTISRDNSKNTLYLQMNSLRAEDTAVYYCARGGYGFDYWGQGTLVTVSS VL: EIVLTQSPGTLSLSPGERATLSCRASQSISSYLNWYQQKPGQAPRLLIYSASSRPQGIPDRFSGSGSGTDFTLTISRLEPEDFAVYYCQQYDDLPFTFGQGTKVEIK	0.044 µg/mL	–
抗CD300c单克隆抗体 SK16 (antibody, from another filing, V domains shown) VH: RVQLLESGGGLVQPGGSLRLSCAASGFTFSSYAMSWVRQAPGKGLEWVSAINGSGGSTLYADSVKGRFTISRDNSKNTLYLQMNSLRAEDTAVYYCARGVSGFDSWGQGTLVTVSS VL: EIVLTQSPGTLSLSPGERATLSCRISQSISSYLNWYQQKPGQAPRLLIYDASLRATGIPDRFSGSGSGTDFTLTISRLEPEDFAVYYCQQSYKTPITFGQGTKVEIK	2.42 µg/mL	–
